Measurements as given in the DeepSol protein solubility set.

Experiment: soluble on expression in E. coli; label from the status in PepcDB or PDB records

Sequence	soluble on expression in E. coli
MGSDKIHHHHHHMNITIVGAGATGGYFGARLAASGLNVTFLVREKRAAQLREKGLVIKSVVEDLTLEAPQIAINAEDIPACDLVLLGLKNYQLAASLPQLKVLVNRGAKILPFLNGVEHFEILAKELGQENVLGGVCKIISTLDSEGTIHHTSKVHQIIFGELEPSGKEFCLRLEQAMAKANFKVKYTENILNEIWSKYAFITVFSGVTSAGDLTTDQICAHEATVKVYRRSLEEMKSLADAYGAALSEDFVEQNVEGLPKYAKGSTSSMHQDMRKGLLLEVESLQGAAIRLAGRKNMELPTIETLYGLIKPYEMGSIG	not soluble
MSLAEQATKSVLFVCLGNICRSPIAEAVFRKLVTDQNISENWVIDSGAVSDWNVGRSPDPRAVSCLRNHGIHTAHKARQITKEDFATFDYILCMDESNLRDLNRKSNQVKTCKAKIELLGSYDPQKQLIIEDPYYGNDSDFETVYQQCVRCCRAFLEKAHEGHHHHHH	soluble
PEMKIVMTSTTEVMEEVLVVAYGTAKKSAFTGSAKMIHTEQITKRPVTNVIESLSGQVAGLQMTMTNGQPGETPSILIRGISSMSAKTDPLIVLDGMPYEGGWNNINPADVESISVLKDAASTALYGARGANGVIIITTKSAKAGD	not soluble
MATSVLCCLRCCRDGGTGHIPLKEMPAVQLDTQHMGIWGIGVATQKVNLNQIPLGRDMHSLVMRNDGALYHNNEEKNRLPANSLPQEGDVVGITYDHVELNVYLNGKNMHCPASGIRGTVYPVVYDDDSAILDCQFSEFYHTPPPGFEKILFEQQIF	not soluble
MSTVQVPKLNTKDLLTLEELTQEEIISLIEFAIYLKKNKQEPLLQGKILGLIFDKHSTRTRVSFEAGMVQLGGHGMFLNGKEMQMGRGETVSDTAKVLSHYIDGIMIRTFSHADVEELAKESSIPVINGLTDDHHPCQALADLMTIYEETNTFKGIKLAYVGDGNNVCHSLLLASAKVGMHMTVATPVGYKPNEEIVKKALAIAKETGAEIEILHNPELAVNEADFIYTDVWMSMGQEGEEEKYTLFQPYQINKELVKHAKQTYHFLHCLPAHREEEVTGEIIDGPQSIVFEQAGNRLHAQKALLVSLFKNVEELS	not soluble
MLQVCCYTSEGYKYAVGIDLVRFFDTVNHSFLLRILSRTINDGRVISLIHKYLTSGVMIGKHYEPSIEGTPQGAPLSPLLSNILLNELDKELERRGHCFVRYADDSMILCKSKRSAERVCSSITDFSFYFTKGKCRLCVHKTTKEKFKRKVKSLTRRSNSMGYAQRKEILWQTFRGWIGYFKYADMRSLLIPLDQWYRRHLRMCIWKCWKRVKTRFSNLQKCGIPKGKALEHHHHHH	soluble
MGSDKIHHHHHHMFRPQDDFTYLMPVHFGGGKFDPETLVTQKATALSLSFETERDLLENYIPEGFELLAPEVQVAFNKFTEINWLHGGQYNLINVAAPVRFHGKKDELDGAYTLVVWENKTAPILGGREQTGIPKIYADIEDLHIVRPHFATTVSYEGNTFLNMDFEATGSITGRDLDALKSQFLTMNTLGWRYIPKVGAPGAELSQFVLYPQGMEVETAEVGKGSLKWTELTPMQSPAQYYIVNSLASLPIKRVTQAVLVEGRAILRAMGARVIE	not soluble
AIASFRTCHNWFPLCLLLKETNNDISGEGIYSSRSELFQQPLAKETQRWSTGPSFVKHYGRLKRHSLPAVHFFDNSQSFLQNLQPNETFPETTTLDWKELENATRLLNDFMESASEDGDSLFDDEFPTMHAKTKLQDGLSTHPQSPPSDITQSVLSNTQSPVPSMLSETELPDFGEDFVNANEELVS	soluble
QPALPEAMYQLLSGAHYRTSPLDLRRMMDAPGQAFRCARTGGAVAGALWLVAEGGLSPELSRAVWAGFRRPRGNLVAQSLAAHGGSPLAATLRGLRVSRIAVHPTRQREGLGRKMIADIAADAAGYDYLSVSFGYTAELWRFWQRCG	not soluble
MAHHHHHHMVLLKILKKIKDNKRNLRILILGLDNAGKTTIIKRLLGEDIYSVSPTFGFNIETLEFGNNILNIWDIGGQKSIRHFWKNYYEDVDGIIFVVDSTDLFRLQLCSFELKQILKEERLYGSTLLILSNKVDIDKSLTINQIVEILKLNEMNMDRHWCINECSAFSGKGLLKSFMWLIDDITDRIDS	not soluble
MAEEAVDARGEGARFIEKVKSICGNTSRILYKYDEPTDPRYGYLPHERPLDVYLRYGMIVVDKPPGPTSHEVVAWIKRMLGVSRAGHGGTLEPLPAPRGLRGGDILK	soluble
MGSDKIHHHHHHMMGYNLTTPFLIYQWNFPMFPWDQIDTVLLDMDGTLLDLHFDNHFWLSLVPGTLSRMHGISAEAATSHVRAAYDKVAGTLEWYCLDYWERELGLDIMALHRTLVDRIQLRQDSMPFLTALADAGKRRILLTNAHPNSLALKLEHTELASGLDEMLSSHQTGHPKESPLFWQAVFARFELNPRRCLFIDDSEAILLAAKHAGVGFQLGISNPDSQQPNKVFHDFPAIHDYRLLLNE	not soluble
MGSDKIHHHHHHMTTNSLLIIDFEFTMPDGKYSPQNFFPEIIEAGIVKSIDDEVVETFSSYVRPKKFPKLTKRCKSFLKITQKQVDEGMRFEDFIRKLNELDPEKNSTIITWGNMDMKVLKQNCMFNHIPFPFKGEMRDLSLEYKNFFGDRTLTGLWKAAEEYGDSGTGTHHKALDDALTAYKLFKLVEQDKQYLEKPKPPTIGERIDLTELLKRAT	not soluble
SLWASADAIQQKLADLEKRSGGRLGVALINTADDSQTLYRGDERFAMCSTGKVMAAAAVLKQSESNPEVVNKRLEIKKSDLVVWSPITEKHLQSGMTLAELSAAALQYSDNTAMNKMISYLGGPEKVTAFAQSIGDVTFRLDRTEPALNSAIPGDKRDTTTPLAMAESLRKLTLGNALGEQQRAQLVTWLKGNTTGGQSIRAGLPASWAVGDKTGAGDYGTTNDIAVIWPENHAPLVLVTYFTQPQQDAKSRKEVLAAAAKIVTEGL	soluble
SSNAKFDQFSSDFQTFNAKFDQFSNDMNAFRSDFQAFKDDFARFNQRFDNFATKYR	soluble
MSLGDRFYDLISALHKSVRGSAPDAALYWYARILTAGGDPLYVARRLLAIASEDVGNADPRAMQVALAAWDCFSRVGAYEGERAIAQAIIYLSVAPKSNAVYTAFNTAKQQAKDLPDYDVPPHLRNAPTNLMKELGYGTEYRYAHDEPNAYAAGENYFPPELKDTQYYFPTNRGMEIQIKEKLERLREQDKSTEGHHHHHH	soluble
MIGRRHPYYPYLEAALEAASLARGIHLYYLEKGFTEGTKSGPTDLVTQADREAEEAVKGLLLSRFPEAGFLGEEGGSEGGKALRFIVDPLDGTVNYAHGFPFFAVSIALEAESAIQMGVVMDTARGEVFYALRGEGAYLNGRPIRVTGRESLVGSLLATGFPYDVAKDPENLTYFERALRKGLLVRRPGAAALDLAYVAAGRLEGFWEVKLNPWDVAAGWLLVEEAGGRVTDLEGNPYRLGSRYILATNGRVHEALRRTLLGLD	soluble
MGSDKIHHHHHHMVKHHCRMVFKFKLGFFTDLHGSEYSFKRSLNIAKSKRVDFLIISGGLIAKEILFVEDIGGRYFLNGKKVNLNNLNEDALRSGKYIVVDKKEVIEDIKSDKSKLEKIVIEKASEQMSRWVKIAEEIFRLEKVFWSPAHGDIPQLDSILKNYGSNLINENVINLEEIQIVSLGFGSPIGNSYREIPDSELYIKGKSLLKDADKERLIMNFHMPPLNTKLDNAKVGLRKSHVGSKAVLDLITEFQPIISLHGHVHESTSMDKVGETIAINPGSLYQLGDPSIVTFEVHKELKSFGSVNVSKYVIKNIEFVSTNPLDVI	not soluble
MTSLPPRNRSASLFEGSPFAPSSTTSPPTSSLAKMLKSEPIPCLRCGNVGSPTGSVPMSLHKVSSINRSAGTNPASRGGESSLELEAIAAVHELSFAVQSISVSEMLPRTPDLIFVNVTTLEAQPYCLELTLKGWRITSLRSDCMVGDFTRLELFTKYYDSLYLLMDDISPGYRERFSEKLVQRLKLIEAGEEDQVAPCASLQSPSLSTDSSSKESQYSSTESLPIVTPVSTPAIDPDFKPKFK	not soluble
MEQLRAAARLQIVLGHLGRPSAGAVVAHPTSGTISSASFHPQQFQYTLDNNVLTLEQRKFYEENGFLVIKNLVPDADIQRFRNEFEKICRKEVKPLGLTVMRDVTISKSEYAPSEKMITKVQDFQEDKELFRYCTLPEILKYVECFTGPNIMAMHTMLINKPPDSGKKTSRHPLHQDLHYFPFRPSDLIVCAWTAMEHISRNNGCLVVLPGTHKGSLKPHDYPKWEGGVNKMFHGIQDYEENKARVHLVMEKGDTVFFHPLLIHGSGQNKTQGFRKAISCHFASADCHYIDVKGTSQENIEKEVVGIAHKFFGAENSVNLKDIWMFRARLVKGERTNL	not soluble
MSLTNEPLASRMRPNNIDEIISQEHLVGPKGIIRRMVETKRLSSMIFYGPPGIGKTSIAKAISGSTQFKFRQLNAVTNTKKDMQLIVEEAKMSGQVILLLDEIHRLDKAKQDFLLPHLENGKIVLIGATTSNPYHAINPAIRSRAQIFELYPLDENDVRVSLDRALNDSERGLASYNPKVDEDAMAYFTTQSQGDVRSALNALELAVLSSENIDQQRHITLQDAKDCLQKGAFVSDKDGDMHYDVMSAFQKSIRGSDVNAALHYLARLIEAGDLPTIVRRLLVISFEDVGLASPSAGQRTLAAIESAERLGFPEARIPLSQAVIELCLSPKSNSGINAIDAALSDIRKGHVGQIPDHLKDGHYAGAKELGRSIGYKYPHNYENGFVTQQYLPMKLKNRIYYEPKTTSKSEQQFKAVFDHINQSQQKNKEGHHHHHH	not soluble
MESLAAKVVERLNRAESAAELRFCHDELARELRRCLAPEQMKQLAGDVVCVHEAILRRAFFLAERETMKRSVGIRPPAWCWYVMGSIGRREPTIWTDQDHGILFDCPEEEEAACYEFIRHMAAVGVDMLHEAGYPYCSGYVMATNKRWAQSVRGWEQQLSSYLDSGWPNDIRFLLIAMDMRPLYGETELAEEGRRMLFSAVAKRPPLLAVRPAWVRRYRVKVPNGGWRAPTVS	not soluble
VPTPKRPRGRPKGSKNKGAAKTRKT	soluble
MAHHHHHHMNQVIRSRTDWKERVVLRLAWITASRWSEIAALTPNNLKLKTDGTLILYWPVAPKTARTDPHRASRFVRIRGQDAFDIIKLCRTLQHIEKLTNLTTARVERALAPWNATAHSIRRGALRHAAQIVEAYNLNPHVISQLAKHVDPFDLPQNTVRYLGNCTTMLTQVLSLVALM	not soluble
MGSDKIHHHHHHMLVRQEALSSKMSIKDLPSSSPLPNANLVLVFGSVRRFSDGKLPTQLKERYPAAQIVGCTTSGEIGPHGVSDDSLQITAIAWDNTMQRVTYARANNMQTSAETAINLAKQLKSDSLRTILVFSDGLHINGSELLQGFQSVLGDIPIVGGMAGDNAEFSRTLQLLNDSIEEGLVVAIGLYGDKLITASGALGGWKPYGPPRKITRSEKNVVYEMDGKPALPLYRMYIGEQNAKALPGSGLRFPFAVIEEGKREVEKVRTLLAIDPEENSLTFAGNVEEGETVRLCQTTHDRLVEGAGGAARLVTANLDTSQPGLALCVSCVGRKLVMAEQIADEIQAVQQTLGSQTALTGFYSYGEFCPRPNTTDNVLHNQTMTIGYLSEAL	not soluble
SNAMIVGIGIDIIELNRIEKMLDGKLKFMERILTENERNVAKGLKGSRLTEFVAGRFAAKEAYSKAVGTGIGKEVSFLDIEVRNDDRGKPILITSTEHIVHLSISHSKEFAVAQVVLESSSS	soluble
CPQEDSDIAFLIDGSGSIIPHDFRRMKEFVSTVMEQLKKSKTLFSLMQYSEEFRIHFTFKEFQNNPNPRSLVKPITQLLGRTHTATGIRKVVRELFNITNGARKNAFKILVVITDGEKFGDPLGYEDVIPEADREGVIRYVIGVGDAFRSEKSRQELNTIASKPPRDHVFQVNNFEALKTIQNQLREKIFAIGSPGI	soluble
